Reference: article PMC6018088

What was measured:
[1] = biological target: T1, Fur (Vibrio cholerae O1 El Tor C7258?) (UniProt P0C6C8); assay: DNase I footprinting; conditions: DNase I footprinting with FAM/HEX-labeled probes and RQ1 DNase I; buffer, salt, pH and temperature not given (cites earlier work)
T1 sequence: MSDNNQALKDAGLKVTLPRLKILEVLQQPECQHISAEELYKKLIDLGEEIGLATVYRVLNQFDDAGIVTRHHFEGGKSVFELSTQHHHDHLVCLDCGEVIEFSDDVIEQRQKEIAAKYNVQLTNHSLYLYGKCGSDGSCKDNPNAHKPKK

[2] = biological target: T2, HapR (Vibrio cholerae O1 El Tor C7258?) (UniProt Q4F6W7); assay: DNase I footprinting; conditions: […]; buffer, pH and temperature not given ([…]
T2 sequence: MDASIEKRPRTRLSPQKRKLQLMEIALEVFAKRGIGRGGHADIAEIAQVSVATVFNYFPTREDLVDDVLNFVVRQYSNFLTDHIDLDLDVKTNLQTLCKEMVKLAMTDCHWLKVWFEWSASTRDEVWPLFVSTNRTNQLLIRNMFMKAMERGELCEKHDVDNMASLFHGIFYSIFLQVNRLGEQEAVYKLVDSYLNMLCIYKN

GTAAAACGACGGCCAGTCTTATGTGTAAGCGTATTGAAATCTTTAGAGTTAAAATGGAGAACTTAACTTTTTTTAAATTATTCAATTAATCTTTAAATCAACCTTATAAATTAATTCAGACTAAATTAGTTCAAATTAAATTAGGCTCATTAAATAATATGAATATCAGTAATTGTTATTTTAGGAAGAAATTATTTTACAGCAAATAAAAAGTCTTTAGAGGCTAAAATCTGTGATCCGGTCATAGCTGTTTCCTG (double strand) [hlyA promoter fragment]
binding [1]: binds
binding [2]: binds
